From publication PMC9342958

Target: CARD9 CARD fused to mEos3.1 (human)
Assay: FRET or BRET; DAmFRET (Distributed Amphifluoric FRET) in living S. cerevisiae: protein fused to mEos3.1, GAL promoter, about 16 hr in galactose, part of mEos3.1 photoconverted to the acceptor form, AmFRET against expression level by flow cytometry

For “CARD9 CARD fused to mEos3.1 (domain or fragment)”, the threshold concentration of polymerisation was 100 µM.
